# Test results taken from the Human Domainome abundance scans (Beltran et al. 2025).
# ± gives the uncertainty stated by the source.
# B1: LIM and senescent cell antigen-like-containing domain protein 2, residues 13 to 71; numbered along this chain, Q7Z4I7 (parent)
# chain: AVCQRCQARFSPAERIVNSNGELYHEHCFVCAQCFRPFPEGLFYEFEGRKYCEHDFQML
# Variants of: B1
# Test: abundance fitness (aPCA) (normalised: wild type 0, dead -1); higher = more abundant; growth selection in yeast, the domain comes from the species named
# Settings: Homo sapiens
row,Variant,abundance fitness
1,AVCQREQARFSPAERIVNSNGELYHEHCFVCAQCFRPFPEGLFYEFEGRKYCEHDFQML,-0.968 ± 0.24
2,AVCQRIQARFSPAERIVNSNGELYHEHCFVCAQCFRPFPEGLFYEFEGRKYCEHDFQML,-1.16 ± 0.36
3,AVCQRGQARFSPAERIVNSNGELYHEHCFVCAQCFRPFPEGLFYEFEGRKYCEHDFQML,-0.757 ± 0.1
4,AVCQRDQARFSPAERIVNSNGELYHEHCFVCAQCFRPFPEGLFYEFEGRKYCEHDFQML,-1.03 ± 0.29
5,AVCQRFQARFSPAERIVNSNGELYHEHCFVCAQCFRPFPEGLFYEFEGRKYCEHDFQML,-0.677 ± 0.12
6,AVCQRAQARFSPAERIVNSNGELYHEHCFVCAQCFRPFPEGLFYEFEGRKYCEHDFQML,-0.84 ± 0.18
7,AVCQRHQARFSPAERIVNSNGELYHEHCFVCAQCFRPFPEGLFYEFEGRKYCEHDFQML,-1.08 ± 0.31
8,NVCQRCQARFSPAERIVNSNGELYHEHCFVCAQCFRPFPEGLFYEFEGRKYCEHDFQML,-0.481 ± 0.41
9,QVCQRCQARFSPAERIVNSNGELYHEHCFVCAQCFRPFPEGLFYEFEGRKYCEHDFQML,-0.313 ± 0.18
10,TVCQRCQARFSPAERIVNSNGELYHEHCFVCAQCFRPFPEGLFYEFEGRKYCEHDFQML,0.176 ± 0.16
11,KVCQRCQARFSPAERIVNSNGELYHEHCFVCAQCFRPFPEGLFYEFEGRKYCEHDFQML,0.066 ± 0.15
12,WVCQRCQARFSPAERIVNSNGELYHEHCFVCAQCFRPFPEGLFYEFEGRKYCEHDFQML,-0.327 ± 0.47
13,RVCQRCQARFSPAERIVNSNGELYHEHCFVCAQCFRPFPEGLFYEFEGRKYCEHDFQML,-0.573 ± 0.22
14,PVCQRCQARFSPAERIVNSNGELYHEHCFVCAQCFRPFPEGLFYEFEGRKYCEHDFQML,-0.739 ± 0.32
15,VVCQRCQARFSPAERIVNSNGELYHEHCFVCAQCFRPFPEGLFYEFEGRKYCEHDFQML,-0.058 ± 0.069
16,DVCQRCQARFSPAERIVNSNGELYHEHCFVCAQCFRPFPEGLFYEFEGRKYCEHDFQML,-0.256 ± 0.21
17,SVCQRCQARFSPAERIVNSNGELYHEHCFVCAQCFRPFPEGLFYEFEGRKYCEHDFQML,0.002 ± 0.12
18,LVCQRCQARFSPAERIVNSNGELYHEHCFVCAQCFRPFPEGLFYEFEGRKYCEHDFQML,-0.149 ± 0.15
19,GVCQRCQARFSPAERIVNSNGELYHEHCFVCAQCFRPFPEGLFYEFEGRKYCEHDFQML,-0.135 ± 0.081
20,EVCQRCQARFSPAERIVNSNGELYHEHCFVCAQCFRPFPEGLFYEFEGRKYCEHDFQML,0.161 ± 0.11
21,AHCQRCQARFSPAERIVNSNGELYHEHCFVCAQCFRPFPEGLFYEFEGRKYCEHDFQML,-0.238 ± 0.17
22,AACQRCQARFSPAERIVNSNGELYHEHCFVCAQCFRPFPEGLFYEFEGRKYCEHDFQML,-0.53 ± 0.13
23,ARCQRCQARFSPAERIVNSNGELYHEHCFVCAQCFRPFPEGLFYEFEGRKYCEHDFQML,-0.002 ± 0.082

row,Variant,abundance fitness
1,AFCQRCQARFSPAERIVNSNGELYHEHCFVCAQCFRPFPEGLFYEFEGRKYCEHDFQML,-0.324 ± 0.11
2,AYCQRCQARFSPAERIVNSNGELYHEHCFVCAQCFRPFPEGLFYEFEGRKYCEHDFQML,-0.097 ± 0.11
3,APCQRCQARFSPAERIVNSNGELYHEHCFVCAQCFRPFPEGLFYEFEGRKYCEHDFQML,-0.274 ± 0.093
4,ACCQRCQARFSPAERIVNSNGELYHEHCFVCAQCFRPFPEGLFYEFEGRKYCEHDFQML,-0.303 ± 0.14
5,AECQRCQARFSPAERIVNSNGELYHEHCFVCAQCFRPFPEGLFYEFEGRKYCEHDFQML,-0.081 ± 0.093
6,AGCQRCQARFSPAERIVNSNGELYHEHCFVCAQCFRPFPEGLFYEFEGRKYCEHDFQML,0.129 ± 0.11
7,AICQRCQARFSPAERIVNSNGELYHEHCFVCAQCFRPFPEGLFYEFEGRKYCEHDFQML,0.019 ± 0.1
8,AMCQRCQARFSPAERIVNSNGELYHEHCFVCAQCFRPFPEGLFYEFEGRKYCEHDFQML,0.093 ± 0.088
9,ANCQRCQARFSPAERIVNSNGELYHEHCFVCAQCFRPFPEGLFYEFEGRKYCEHDFQML,-0.139 ± 0.13
10,ADCQRCQARFSPAERIVNSNGELYHEHCFVCAQCFRPFPEGLFYEFEGRKYCEHDFQML,-0.128 ± 0.16
11,AWCQRCQARFSPAERIVNSNGELYHEHCFVCAQCFRPFPEGLFYEFEGRKYCEHDFQML,-0.546 ± 0.24
12,ALCQRCQARFSPAERIVNSNGELYHEHCFVCAQCFRPFPEGLFYEFEGRKYCEHDFQML,-0.144 ± 0.062
13,ATCQRCQARFSPAERIVNSNGELYHEHCFVCAQCFRPFPEGLFYEFEGRKYCEHDFQML,0.011 ± 0.098
14,AKCQRCQARFSPAERIVNSNGELYHEHCFVCAQCFRPFPEGLFYEFEGRKYCEHDFQML,0.018 ± 0.14
15,ASCQRCQARFSPAERIVNSNGELYHEHCFVCAQCFRPFPEGLFYEFEGRKYCEHDFQML,-0.445 ± 0.11
16,AVCQCCQARFSPAERIVNSNGELYHEHCFVCAQCFRPFPEGLFYEFEGRKYCEHDFQML,-0.379 ± 0.2
17,AVCQWCQARFSPAERIVNSNGELYHEHCFVCAQCFRPFPEGLFYEFEGRKYCEHDFQML,-0.184 ± 0.081
18,AVCQFCQARFSPAERIVNSNGELYHEHCFVCAQCFRPFPEGLFYEFEGRKYCEHDFQML,-0.347 ± 0.15
19,AVCQYCQARFSPAERIVNSNGELYHEHCFVCAQCFRPFPEGLFYEFEGRKYCEHDFQML,0.29 ± 0.11
20,AVCQPCQARFSPAERIVNSNGELYHEHCFVCAQCFRPFPEGLFYEFEGRKYCEHDFQML,-0.625 ± 0.15
21,AVCQICQARFSPAERIVNSNGELYHEHCFVCAQCFRPFPEGLFYEFEGRKYCEHDFQML,0.078 ± 0.14
22,AVCQQCQARFSPAERIVNSNGELYHEHCFVCAQCFRPFPEGLFYEFEGRKYCEHDFQML,0.066 ± 0.073
23,AVCQGCQARFSPAERIVNSNGELYHEHCFVCAQCFRPFPEGLFYEFEGRKYCEHDFQML,0.231 ± 0.07

row,Variant,abundance fitness
1,AVCQECQARFSPAERIVNSNGELYHEHCFVCAQCFRPFPEGLFYEFEGRKYCEHDFQML,0.037 ± 0.077
2,AVCQDCQARFSPAERIVNSNGELYHEHCFVCAQCFRPFPEGLFYEFEGRKYCEHDFQML,0.104 ± 0.12
3,AVCQACQARFSPAERIVNSNGELYHEHCFVCAQCFRPFPEGLFYEFEGRKYCEHDFQML,0.186 ± 0.079
4,AVCQNCQARFSPAERIVNSNGELYHEHCFVCAQCFRPFPEGLFYEFEGRKYCEHDFQML,-0.081 ± 0.13
5,AVCQKCQARFSPAERIVNSNGELYHEHCFVCAQCFRPFPEGLFYEFEGRKYCEHDFQML,0.052 ± 0.082
6,AVCQVCQARFSPAERIVNSNGELYHEHCFVCAQCFRPFPEGLFYEFEGRKYCEHDFQML,0.119 ± 0.061
7,AVCQHCQARFSPAERIVNSNGELYHEHCFVCAQCFRPFPEGLFYEFEGRKYCEHDFQML,0.069 ± 0.15
8,AVCQMCQARFSPAERIVNSNGELYHEHCFVCAQCFRPFPEGLFYEFEGRKYCEHDFQML,0.129 ± 0.077
9,AVCQSCQARFSPAERIVNSNGELYHEHCFVCAQCFRPFPEGLFYEFEGRKYCEHDFQML,0.209 ± 0.062
10,AVCFRCQARFSPAERIVNSNGELYHEHCFVCAQCFRPFPEGLFYEFEGRKYCEHDFQML,-0.161 ± 0.17
11,AVCVRCQARFSPAERIVNSNGELYHEHCFVCAQCFRPFPEGLFYEFEGRKYCEHDFQML,-0.228 ± 0.068
12,AVCCRCQARFSPAERIVNSNGELYHEHCFVCAQCFRPFPEGLFYEFEGRKYCEHDFQML,0.065 ± 0.11
13,AVCSRCQARFSPAERIVNSNGELYHEHCFVCAQCFRPFPEGLFYEFEGRKYCEHDFQML,0.029 ± 0.064
14,AVCPRCQARFSPAERIVNSNGELYHEHCFVCAQCFRPFPEGLFYEFEGRKYCEHDFQML,-0.145 ± 0.11
15,AVCGRCQARFSPAERIVNSNGELYHEHCFVCAQCFRPFPEGLFYEFEGRKYCEHDFQML,-0.127 ± 0.071
16,AVCIRCQARFSPAERIVNSNGELYHEHCFVCAQCFRPFPEGLFYEFEGRKYCEHDFQML,-0.216 ± 0.18
17,AVCMRCQARFSPAERIVNSNGELYHEHCFVCAQCFRPFPEGLFYEFEGRKYCEHDFQML,0.209 ± 0.1
18,AVCKRCQARFSPAERIVNSNGELYHEHCFVCAQCFRPFPEGLFYEFEGRKYCEHDFQML,-0.007 ± 0.091
19,AVCWRCQARFSPAERIVNSNGELYHEHCFVCAQCFRPFPEGLFYEFEGRKYCEHDFQML,-0.528 ± 0.1
20,AVCLRCQARFSPAERIVNSNGELYHEHCFVCAQCFRPFPEGLFYEFEGRKYCEHDFQML,0.184 ± 0.059
21,AVCDRCQARFSPAERIVNSNGELYHEHCFVCAQCFRPFPEGLFYEFEGRKYCEHDFQML,0.357 ± 0.11
22,AVCTRCQARFSPAERIVNSNGELYHEHCFVCAQCFRPFPEGLFYEFEGRKYCEHDFQML,0.051 ± 0.078
23,AVCNRCQARFSPAERIVNSNGELYHEHCFVCAQCFRPFPEGLFYEFEGRKYCEHDFQML,0.679 ± 0.16

row,Variant,abundance fitness
1,AVCERCQARFSPAERIVNSNGELYHEHCFVCAQCFRPFPEGLFYEFEGRKYCEHDFQML,-0.133 ± 0.082
2,AVCRRCQARFSPAERIVNSNGELYHEHCFVCAQCFRPFPEGLFYEFEGRKYCEHDFQML,-0.073 ± 0.064
3,AVCHRCQARFSPAERIVNSNGELYHEHCFVCAQCFRPFPEGLFYEFEGRKYCEHDFQML,0.035 ± 0.13
4,AVCYRCQARFSPAERIVNSNGELYHEHCFVCAQCFRPFPEGLFYEFEGRKYCEHDFQML,0.086 ± 0.11
5,AVEQRCQARFSPAERIVNSNGELYHEHCFVCAQCFRPFPEGLFYEFEGRKYCEHDFQML,-0.468 ± 0.17
6,AVWQRCQARFSPAERIVNSNGELYHEHCFVCAQCFRPFPEGLFYEFEGRKYCEHDFQML,-0.42 ± 0.13
7,AVAQRCQARFSPAERIVNSNGELYHEHCFVCAQCFRPFPEGLFYEFEGRKYCEHDFQML,-0.682 ± 0.12
8,AVMQRCQARFSPAERIVNSNGELYHEHCFVCAQCFRPFPEGLFYEFEGRKYCEHDFQML,-0.843 ± 0.14
9,AVRQRCQARFSPAERIVNSNGELYHEHCFVCAQCFRPFPEGLFYEFEGRKYCEHDFQML,-1.21 ± 0.18
10,AVYQRCQARFSPAERIVNSNGELYHEHCFVCAQCFRPFPEGLFYEFEGRKYCEHDFQML,-0.887 ± 0.18
11,AVSQRCQARFSPAERIVNSNGELYHEHCFVCAQCFRPFPEGLFYEFEGRKYCEHDFQML,-0.832 ± 0.11
12,AVHQRCQARFSPAERIVNSNGELYHEHCFVCAQCFRPFPEGLFYEFEGRKYCEHDFQML,-1 ± 0.23
13,AVNQRCQARFSPAERIVNSNGELYHEHCFVCAQCFRPFPEGLFYEFEGRKYCEHDFQML,-0.687 ± 0.13
14,AVGQRCQARFSPAERIVNSNGELYHEHCFVCAQCFRPFPEGLFYEFEGRKYCEHDFQML,-0.499 ± 0.083
15,AVQQRCQARFSPAERIVNSNGELYHEHCFVCAQCFRPFPEGLFYEFEGRKYCEHDFQML,-1.33 ± 0.32
16,AVLQRCQARFSPAERIVNSNGELYHEHCFVCAQCFRPFPEGLFYEFEGRKYCEHDFQML,-0.705 ± 0.088
17,AVDQRCQARFSPAERIVNSNGELYHEHCFVCAQCFRPFPEGLFYEFEGRKYCEHDFQML,-0.894 ± 0.24
18,AVKQRCQARFSPAERIVNSNGELYHEHCFVCAQCFRPFPEGLFYEFEGRKYCEHDFQML,-1.08 ± 0.23
19,AVFQRCQARFSPAERIVNSNGELYHEHCFVCAQCFRPFPEGLFYEFEGRKYCEHDFQML,-1.11 ± 0.25
20,AVTQRCQARFSPAERIVNSNGELYHEHCFVCAQCFRPFPEGLFYEFEGRKYCEHDFQML,-1.22 ± 0.26
21,AVIQRCQARFSPAERIVNSNGELYHEHCFVCAQCFRPFPEGLFYEFEGRKYCEHDFQML,-1.25 ± 0.35
